Measurements from patent publication US20230406950A1 (LYVGEN BIOPHARMA, published 2023).

B1: Ly510 (bispecific antibody, human IgG2, kappa)
heavy: QVTLKESGPALVKPTQTLTLTCTFSGFSLSTSGTCVSWIRQPPGKALEWLATICWEDSKGYNPSLKSRLTISKDTSKNQAVLTMTNMDPVDTATYYCARREDSGYFWFPYWGQGTLVTVSSASTKGPSVFPLAPCSRSTSESTAALGCLVKDYFPEPVTVSWNSGALTSGVHTFPAVLQSSGLYSLSSVVTVPSSNFGTQTYTCNVDHKPSNTKVDKTVERKCCVECPPCPAPPVAPSVFLFPPKPKDTLMISRTPEVTCVVVDVSHEDPEVQFNWYVDGVEVHNAKTKPREEQFNSTFRVVSVLTVVHQDWLNGKEYKCKVSNKGLPAPIEKTISKTKGQPREPQVYTLPPSREEMTKNQVSLTCLVKGFYPSDIAVEWESNGQPENNYKTTPPMLDSDGSFFLYSKLTVDKSRWQQGNVFSCSVMHEALHNHYTQKSLSLSPGGGGGSGGGGSGGGGSGGGGSDIQMTQSPSSLSASVGDRVTITCRASQDIRSNLNWYQQKPGGAVKLLIYYTSRLHSGVPSRFSGSGSGTDYTLTISSLQPEDFATYFCQQSEKLPRTFGGGTKVEIRGGGGSGGGGSGGGGSGGGGSQVQLVQSGAEVKKPGASVKVSCKASGYTFAGFEMHWVRQAPGQGLEWMGAIDPKTGGTDYNQKFKDRVTMTRDTSISTAYMELSRLRSDDTAVYYCARDLGYFDVWGQGTLVTVSS
light: NIQMTQSPSSLSASVGDRVTITCKAGQNVNNYLAWYQQKPGKAPKVLIFNANSLQTGVPSRFSGSGSGTDFTLTISSLQPEDFATYYCQQYNSWPTFGGGTKVEIKRTVAAPSVFIFPPSDEQLKSGTASVVCLLNNFYPREAKVQWKVDNALQSGNSQESVTEQDSKDSTYSLSSTLTLSKADYEKHKVYACEVTHQGLSSPVTKSFNRGEC
notes: Anti-PD-1/CD137: Ly516 heavy chain (other constant region than Ly456) fused to Ly1630 scFv (VL-VH); Ly516 light chain
B2: Ly514 (bispecific antibody, human IgG2, kappa)
heavy: QVTLKESGPALVKPTQTLTLTCTFSGFSLSTSGTCVSWIRQPPGKALEWLATICWEDSKGYNPSLKSRLTISKDTSKNQAVLTMTNMDPVDTATYYCARREDSGYFWFPYWGQGTLVTVSSASTKGPSVFPLAPCSRSTSESTAALGCLVKDYFPEPVTVSWNSGALTSGVHTFPAVLQSSGLYSLSSVVTVPSSNFGTQTYTCNVDHKPSNTKVDKTVERKCCVECPPCPAPPVAPSVFLFPPKPKDTLMISRTPEVTCVVVDVSHEDPEVQFNWYVDGVEVHNAKTKPREEQFNSTFRVVSVLTVVHQDWLNGKEYKCKVSNKGLPAPIEKTISKTKGQPREPQVYTLPPSREEMTKNQVSLTCLVKGFYPSDIAVEWESNGQPENNYKTTPPMLDSDGSFFLYSKLTVDKSRWQQGNVFSCSVMHEALHNHYTQKSLSLSPGGGGGSGGGGSGGGGSGGGGSDIQMTQSPSSLSASVGDRVTITCRASQDIRSNLNWYQQKPGGAVKLLIYYTSRLHSGVPSRFSGSGSGTDYTLTISSLQPEDFATYFCQQSEKLPRTFGGGTKVEIRRTVAAPSVFIFPPSDEQLKSGTASVVCLLNNFYPREAKVQWKVDNALQSGNSQESVTEQDSKDSTYSLSSTLTLSKADYEKHKVYACEVTHQGLSSPVTKSFNRGEC
light: B1 light
chain: QVQLVQSGAEVKKPGASVKVSCKASGYTFAGFEMHWVRQAPGQGLEWMGAIDPKTGGTDYNQKFKDRVTMTRDTSISTAYMELSRLRSDDTAVYYCARDLGYFDVWGQGTLVTVSSASTKGPSVFPLAPSSKSTSGGTAALGCLVKDYFPEPVTVSWNSGALTSGVHTFPAVLQSSGLYSLSSVVTVPSSSLGTQTYICNVNHKPSNTKVDKKVEPKSCDK
notes: Three-chain format: Ly516 heavy chain fused to Ly1630 light chain; Ly516 light chain; Ly1630 VH-CH1
B3: Ly253-G2 (antibody, human IgG2, kappa, V domains shown)
VH: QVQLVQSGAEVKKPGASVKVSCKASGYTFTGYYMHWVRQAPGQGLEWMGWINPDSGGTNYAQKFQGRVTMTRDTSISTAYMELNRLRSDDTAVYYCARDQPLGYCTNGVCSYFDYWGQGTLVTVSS
VL: DIQMTQSPSSVSASVGDRVTITCRASQGIYSWLAWYQQKPGKAPNLLIYTASTLQSGVPSRFSGSGSGTDFTLTISSLQPEDFATYYCQQANIFPLTFGGGTKVEIKR
notes: also called anti-CD40 antibody
B4: Ly461 (bispecific antibody, human IgG1, kappa)
heavy: QVQLVQSGAEVKKPGASVKVSCKASGYTFAGFEMHWVRQAPGQGLEWMGAIDPKTGGTDYNQKFKDRVTMTRDTSISTAYMELSRLRSDDTAVYYCARDLGYFDVWGQGTLVTVSSASTKGPSVFPLAPSSKSTSGGTAALGCLVKDYFPEPVTVSWNSGALTSGVHTFPAVLQSSGLYSLSSVVTVPSSSLGTQTYICNVNHKPSNTKVDKKVEPKSCDKTHTCPPCPAPELLGPSVFLFPPKPKDTLMISRTPEVTCVVVDVSHEDPEVKFNWYVDGVEVHNAKTKPREEQYNSTYRVVSVLTVLHQDWLNGKEYKCKVSNKALPAPIEKTISKAKGQPREPQVYTLPPSREEMTKNQVSLTCLVKGFYPSDIAVEWESNGQPENNYKTTPPVLDSDGSFFLYSKLTVDKSRWQQGNVFSCSVMHEALHNHYTQKSLSLSPGGGGGSGGGGSGGGGSGGGGSNIQMTQSPSSLSASVGDRVTITCKAGQNVNNYLAWYQQKPGKAPKVLIFNANSLQTGVPSRFSGSGSGTDFTLTISSLQPEDFATYYCQQYNSWPTFGGGTKVEIKRTVAAPSVFIFPPSDEQLKSGTASVVCLLNNFYPREAKVQWKVDNALQSGNSQESVTEQDSKDSTYSLSSTLTLSKADYEKHKVYACEVTHQGLSSPVTKSFNRGEC
light: DIQMTQSPSSLSASVGDRVTITCRASQDIRSNLNWYQQKPGGAVKLLIYYTSRLHSGVPSRFSGSGSGTDYTLTISSLQPEDFATYFCQQSEKLPRTFGGGTKVEIRRTVAAPSVFIFPPSDEQLKSGTASVVCLLNNFYPREAKVQWKVDNALQSGNSQESVTEQDSKDSTYSLSSTLTLSKADYEKHKVYACEVTHQGLSSPVTKSFNRGEC
chain: QVTLKESGPALVKPTQTLTLTCTFSGFSLSTSGTCVSWIRQPPGKALEWLATICWEDSKGYNPSLKSRLTISKDTSKNQAVLTMTNMDPVDTATYYCARREDSGYFWFPYWGQGTLVTVSSASTKGPSVFPLAPSSKSTSGGTAALGCLVKDYFPEPVTVSWNSGALTSGVHTFPAVLQSSGLYSLSSVVTVPSSSLGTQTYICNVNHKPSNTKVDKKVEPKSCDK
notes: Three-chain format: Ly1630 heavy chain fused to Ly516 light chain; Ly1630 light chain; Ly516 VH-CH1
B5: Ly515 (bispecific antibody, human IgG2, kappa)
heavy: QVQLVQSGAEVKKPGASVKVSCKASGYTFAGFEMHWVRQAPGQGLEWMGAIDPKTGGTDYNQKFKDRVTMTRDTSISTAYMELSRLRSDDTAVYYCARDLGYFDVWGQGTLVTVSSASTKGPSVFPLAPCSRSTSESTAALGCLVKDYFPEPVTVSWNSGALTSGVHTFPAVLQSSGLYSLSSVVTVPSSNFGTQTYTCNVDHKPSNTKVDKTVERKCCVECPPCPAPPVAPSVFLFPPKPKDTLMISRTPEVTCVVVDVSHEDPEVQFNWYVDGVEVHNAKTKPREEQFNSTFRVVSVLTVVHQDWLNGKEYKCKVSNKGLPAPIEKTISKTKGQPREPQVYTLPPSREEMTKNQVSLTCLVKGFYPSDIAVEWESNGQPENNYKTTPPMLDSDGSFFLYSKLTVDKSRWQQGNVFSCSVMHEALHNHYTQKSLSLSPGGGGGSGGGGSGGGGSGGGGSNIQMTQSPSSLSASVGDRVTITCKAGQNVNNYLAWYQQKPGKAPKVLIFNANSLQTGVPSRFSGSGSGTDFTLTISSLQPEDFATYYCQQYNSWPTFGGGTKVEIKRTVAAPSVFIFPPSDEQLKSGTASVVCLLNNFYPREAKVQWKVDNALQSGNSQESVTEQDSKDSTYSLSSTLTLSKADYEKHKVYACEVTHQGLSSPVTKSFNRGEC
light: B4 light
chain: B4 chain
notes: as for B4

Experiments:
[1] = target: T1, human PD-1 expressed on cells (human, UniProt Q15116 25-288); experiment: flow cytometry (FACS), MFI, CHO cells expressing human PD-1
T1 construct: whole, on cells; also called human PD-1 over-expressed on the CHO cells; Jurkat/NFkB-Luci/PD-1 cells
T1 sequence (Q15116 25-288): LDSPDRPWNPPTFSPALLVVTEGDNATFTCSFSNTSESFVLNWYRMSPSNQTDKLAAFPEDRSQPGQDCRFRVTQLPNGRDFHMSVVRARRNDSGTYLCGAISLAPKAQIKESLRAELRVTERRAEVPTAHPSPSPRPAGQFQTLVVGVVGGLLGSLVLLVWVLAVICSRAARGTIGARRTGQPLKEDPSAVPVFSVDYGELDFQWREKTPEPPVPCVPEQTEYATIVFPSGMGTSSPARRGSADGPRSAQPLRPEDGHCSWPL
Experimental: (§1) Exemplary anti-PD-1/CD137 bi-specific antibodies were analyzed by FACS for their binding properties to human PD-1 and/or human CD137 expressed on CHO cells. Briefly, cultured cells were harvested, counted and cell viability was evaluated using the Trypan Blue exclusion method. Viable cells were then adjusted to 2×10⁶ cells per mL in PBS containing 2% BSA. 100 μL of this cell suspension were further aliquoted per well into a V-bottom 96-well plate. […] After incubation for 2 hours at 4° C., cells were centrifuged (3 min, 1000× g), washed with 250 μL/well BSA-containing FACS Stain Buffer, resuspended and incubated for an additional 1 hour at 4° C. with 100 μL/well fluorochrome-conjugated anti-IgG antibody for detection of the bisepecific antibody. Cells were then washed with 250 μL/well BSA-containing FACS Stain Buffer, resuspended in 100 μL/well FACS Stain Buffer, acquired and analyzed using a FACS machine. Binding of the bispecific antibodies to human PD-1 or human CD137 expressing CHO cells were evaluated and the mean fluorescence intensity is plotted in histograms or dot plots.

[2] = target: T2, human CD137 ECD protein (His tag) (human, UniProt Q07011 24-186); experiment: bridging ELISA: human CD137 ECD (His tag) coated, antibody titrated, then human PD-1 ECD (mouse IgG2a Fc tag), HRP anti-mouse IgG2a Fc; A450-A620
T2 construct: extracellular domain; also called recombinant human CD137; not shown: His tag
Experimental: Exemplary anti-PD-1/CD137 bi-specific antibodies were analyzed by ELISA for their simultaneous binding to recombinant human PD-1 and human CD137. Briefly, human CD137 ECD protein (His tag) was diluted and coated onto an ELISA plate with a volume of 100 μL/well by incubation at 4° C. overnight. The next day, the plate was blocked with PBST-BSA buffer, then serially diluted samples of anti-PD-1/CD137 bi-specific antibodies were pipetted into appropriate wells at 50 μL/well, and the plate was incubated for 1 hour followed by washing. The extracellular domain (ECD) of human PD-1 protein (mouse IgG2a Fc tag) was added into the plate at 50 μL/well. After 1-hour incubation at room temperature, HRP-conjugated anti-Mouse IgG, Fc G2a specific antibody was added into the plate at 100 μL/well. The plate was incubated for 1 hour at room temperature followed by washing. TMB substrate solution was added at 100 μL/well and the color development was stopped by adding 100 uL/well Stop Solution (2N H₂SO₄). Absorbance at 450 nm and 620 nm was read by Tecan F200 Pro plate reader. GraphPad 7.0, “[Agonist] vs. response—Variable slope (four parameters)” was used to plot the binding data and calculate binding EC50 values.

[3] = target: T3, human CD137 expressed on cells (human, UniProt Q07011 24-255); experiment: flow cytometry (FACS), MFI, CHO cells expressing human CD137
T3 construct: whole, on cells; also called 4-1BB; TNFRSF9
T3 sequence (Q07011 24-255): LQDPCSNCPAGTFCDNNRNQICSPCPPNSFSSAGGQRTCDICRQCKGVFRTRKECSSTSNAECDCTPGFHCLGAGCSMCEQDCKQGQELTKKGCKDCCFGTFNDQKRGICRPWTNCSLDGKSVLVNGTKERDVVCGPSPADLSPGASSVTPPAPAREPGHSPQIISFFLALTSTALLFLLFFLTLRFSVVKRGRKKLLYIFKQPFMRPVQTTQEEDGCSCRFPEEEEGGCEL
Experimental: as §1

[4] = target: T4, human CD40 expressed on CHO cells (human, UniProt P25942 21-277); experiment: FACS on CHO cells expressing human CD40 (MFI)
T4 construct: whole, on cells
T4 sequence (P25942 21-277): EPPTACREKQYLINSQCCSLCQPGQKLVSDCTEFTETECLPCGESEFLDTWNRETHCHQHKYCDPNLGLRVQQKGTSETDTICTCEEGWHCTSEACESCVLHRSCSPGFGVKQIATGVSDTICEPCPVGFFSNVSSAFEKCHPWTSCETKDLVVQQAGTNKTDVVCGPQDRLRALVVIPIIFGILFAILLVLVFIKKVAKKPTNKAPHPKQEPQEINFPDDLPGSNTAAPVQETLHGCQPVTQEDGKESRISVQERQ
Experimental: as §1, with “Anti-CD40/CD137” for “Exemplary anti-PD-1/CD137”, “CD40” for “PD-1”, “1000×g),” for “1000× g),”

Binder	EC50 (read off the curve) [1]	EC50 (read off the curve) [2]	EC50 (read off the curve) [3]	EC50 (read off the curve) [4]
B1	~0.2 µg/mL	~0.02 µg/mL		
B2	~0.2 µg/mL		~0.5 µg/mL	
B3				~0.09 µg/mL
B4			~0.1 µg/mL	
B5			~0.1 µg/mL	
